Results taken from the RNAGym collection of RNA variant scans (doi:10.1101/gr.219683.116).

B1: mRNA-splicing (parent)
chain: AGUUGCUGCUGGGAGCUCCAGCACAGUGAAAUGGACAGAAGGGCAGAGCAA

Variants of: B1
Test: exon inclusion enrichment index; higher = more inclusion; WT1 exon 5 minigene, HEK293

Going from AGUUCUUCUCGGGAGCUCCAGCAAGGUGAAAUGGACAGAAGGGCAGAGCAA [G5C C6U G8C C9U U10C C24A A25G] to AGUUCUUCUCGGGAGCUCCAGCAAUGUGAAAUGGACAGAAGGGCAGAGCAA [G5C C6U G8C C9U U10C C24A A25U], the “exon inclusion enrichment index” value falls from 2.06 to 1.94.

Compared with AGUUCUUCUCGGGAGCUCCAGCAACGUGAAAUGGACAGAAGGGCAGAGCAA [G5C C6U G8C C9U U10C C24A A25C], AGUUCUUCUCGGGAGCUCCAGCACAGUGAAAUGGACAGAAGGGGCGAGCAA [G5C C6U G8C C9U U10C C44G A45C] is lower in “exon inclusion enrichment index” value: 3.4 for the first, 3.14 for the second.

First: AGUUCUUCUCGGGAGCUCCAGCACAGUGAAAUGGACAGAAGGGGGGAGCAA [G5C C6U G8C C9U U10C C44G A45G]
Second: AGUUCUUCUCGGGAGCUCCAGCACAGUGAAAUGGACAGAAGGGGUGAGCAA [G5C C6U G8C C9U U10C C44G A45U]
The “exon inclusion enrichment index” value of the first is lower: 0.398 for the first, 1.26 for the second.

Compared with AGUUCUUCUCGGCCGCUCCAGCACAGUGAAAUGGACAGAAGGGCAGAGCAA [G5C C6U G8C C9U U10C G13C A14C], AGUUCUUCUCGGCGGCUCCAGCACAGUGAAAUGGACAGAAGGGCAGAGCAA [G5C C6U G8C C9U U10C G13C A14G] is higher in “exon inclusion enrichment index” value: 1.15 for the first, 1.94 for the second.

Going from AGUUCUUCUCGGCUGCUCCAGCACAGUGAAAUGGACAGAAGGGCAGAGCAA [G5C C6U G8C C9U U10C G13C A14U] to AGUUCUUCUCGGGAGCUCCAGACCAGUGAAAUGGACAGAAGGGCAGAGCAA [G5C C6U G8C C9U U10C C22A A23C], the “exon inclusion enrichment index” value rises from 1.35 to 2.99.

Compared with AGUUCUUCUCGGGAGCUCCAGAUCAGUGAAAUGGACAGAAGGGCAGAGCAA [G5C C6U G8C C9U U10C C22A A23U], AGUUCUUCUCGGGAGCUCCAGAGCAGUGAAAUGGACAGAAGGGCAGAGCAA [G5C C6U G8C C9U U10C C22A A23G] is higher in “exon inclusion enrichment index” value: 1.31 for the first, 2.07 for the second.

First: AGUUCUUCUCGGGAGCUCCAGCAGGGUGAAAUGGACAGAAGGGCAGAGCAA [G5C C6U G8C C9U U10C C24G A25G]
Second: AGUUCUUCUCGGGAGCUCCAGCAGUGUGAAAUGGACAGAAGGGCAGAGCAA [G5C C6U G8C C9U U10C C24G A25U]
The “exon inclusion enrichment index” value of the first is lower: 0.981 for the first, 2.32 for the second.

Compared with AGUUCUUCUCGGGAGCUCCAGCAGCGUGAAAUGGACAGAAGGGCAGAGCAA [G5C C6U G8C C9U U10C C24G A25C], AGUUCUUCUCGUCAGCUCCAGCACAGUGAAAUGGACAGAAGGGCAGAGCAA [G5C C6U G8C C9U U10C G12U G13C] is lower in “exon inclusion enrichment index” value: 3.27 for the first, 0.698 for the second.

Compared with AGUUCUUCUCGUAAGCUCCAGCACAGUGAAAUGGACAGAAGGGCAGAGCAA [G5C C6U G8C C9U U10C G12U G13A], AGUUCUUCUCGUUAGCUCCAGCACAGUGAAAUGGACAGAAGGGCAGAGCAA [G5C C6U G8C C9U U10C G12U G13U] is lower in “exon inclusion enrichment index” value: 0.153 for the first, 0.0261 for the second.

Going from AGUUCUUCUCGGGACUUCCAGCACAGUGAAAUGGACAGAAGGGCAGAGCAA [G5C C6U G8C C9U U10C G15C C16U] to AGUUCUUCUCGGGACAUCCAGCACAGUGAAAUGGACAGAAGGGCAGAGCAA [G5C C6U G8C C9U U10C G15C C16A], the “exon inclusion enrichment index” value falls from 1.9 to 1.75.

First: AGUUCUUCUCGGGACGUCCAGCACAGUGAAAUGGACAGAAGGGCAGAGCAA [G5C C6U G8C C9U U10C G15C C16G]
Second: AGUUCUUCUCGGGAGCUCCAGCAUCGUGAAAUGGACAGAAGGGCAGAGCAA [G5C C6U G8C C9U U10C C24U A25C]
The “exon inclusion enrichment index” value of the first is lower: 2.09 for the first, 3.44 for the second.

First: AGUUCUUCUCGGGAGCUCCAGCAUGGUGAAAUGGACAGAAGGGCAGAGCAA [G5C C6U G8C C9U U10C C24U A25G]
Second: AGUUCUUCUCGGGAGCUCCAGCAUUGUGAAAUGGACAGAAGGGCAGAGCAA [G5C C6U G8C C9U U10C C24U A25U]
The “exon inclusion enrichment index” value of the first is higher: 3.05 for the first, 1.95 for the second.

Compared with AGUUCUUCUCGAAAGCUCCAGCACAGUGAAAUGGACAGAAGGGCAGAGCAA [G5C C6U G8C C9U U10C G12A G13A], AGUUCUUCUCGACAGCUCCAGCACAGUGAAAUGGACAGAAGGGCAGAGCAA [G5C C6U G8C C9U U10C G12A G13C] is higher in “exon inclusion enrichment index” value: 0.681 for the first, 0.692 for the second.

Going from AGUUCUUCUCGAUAGCUCCAGCACAGUGAAAUGGACAGAAGGGCAGAGCAA [G5C C6U G8C C9U U10C G12A G13U] to AGUUCUUCUCGGGAGCUCCAGGUCAGUGAAAUGGACAGAAGGGCAGAGCAA [G5C C6U G8C C9U U10C C22G A23U], the “exon inclusion enrichment index” value rises from 0.128 to 0.248.

Going from AGUUCUUCUCGGGAGCUCCAGGCCAGUGAAAUGGACAGAAGGGCAGAGCAA [G5C C6U G8C C9U U10C C22G A23C] to AGUUCUUCUCGGGAGCUCCAGGGCAGUGAAAUGGACAGAAGGGCAGAGCAA [G5C C6U G8C C9U U10C C22G A23G], the “exon inclusion enrichment index” value rises from 0.747 to 0.846.

Going from AGUUCUUCUCGGGAGCUCCAGCACAGUGAAAUGGACAGAAGGGUCGAGCAA [G5C C6U G8C C9U U10C C44U A45C] to AGUUCUUCUCGGGAGCUCCAGCACAGUGAAAUGGACAGAAGGGUGGAGCAA [G5C C6U G8C C9U U10C C44U A45G], the “exon inclusion enrichment index” value falls from 2.63 to 1.03.

First: AGUUCUUCUCGGGAGCUCCAGCACAGUGAAAUGGACAGAAGGGUUGAGCAA [G5C C6U G8C C9U U10C C44U A45U]
Second: AGUUCUUCUCGGGAGCUCCAGCAAAGUGAAAUGGACAGAAGGGCAGAGCAA [G5C C6U G8C C9U U10C C24A]
The “exon inclusion enrichment index” value of the first is lower: 1.28 for the first, 1.72 for the second.

First: AGUUCUUCUCGGGAGCUCCAGCAGAGUGAAAUGGACAGAAGGGCAGAGCAA [G5C C6U G8C C9U U10C C24G]
Second: AGUUCUUCUCGGGAGCUCCAGCAUAGUGAAAUGGACAGAAGGGCAGAGCAA [G5C C6U G8C C9U U10C C24U]
The “exon inclusion enrichment index” value of the first is higher: 2.4 for the first, 0.544 for the second.

Going from AGUUCUUCUCGGGAGCUCCAGUACAGUGAAAUGGACAGAAGGGCAGAGCAA [G5C C6U G8C C9U U10C C22U] to AGUUCUUCUCGGGAGCUCCAGGACAGUGAAAUGGACAGAAGGGCAGAGCAA [G5C C6U G8C C9U U10C C22G], the “exon inclusion enrichment index” value rises from 1.44 to 2.51.

Going from AGUUCUUCUCGGGAGCUCCAGAACAGUGAAAUGGACAGAAGGGCAGAGCAA [G5C C6U G8C C9U U10C C22A] to AGUUCUUCUCGGGAGCUCCAGCACAGUGAAAUGGACAGAAGGGAGGAGCAA [G5C C6U G8C C9U U10C C44A A45G], the “exon inclusion enrichment index” value rises from 1.57 to 2.98.

Going from AGUUCUUCUCGGGAGCUCCAGCACAGUGAAAUGGACAGAAGGGACGAGCAA [G5C C6U G8C C9U U10C C44A A45C] to AGUUCUUCUCGGGAGCUCCAGCACAGUGAAAUGGACAGAAGGGAUGAGCAA [G5C C6U G8C C9U U10C C44A A45U], the “exon inclusion enrichment index” value rises from 3.61 to 4.04.

Compared with AGUUCUUCUCGGGAGCUCCAGCACAGUGAAAUGGAAAGAAGGGCAGAGCAA [G5C C6U G8C C9U U10C C36A], AGUUCUUCUCGGGAGCUCCAGCACAGUGAAAUGGAUAGAAGGGCAGAGCAA [G5C C6U G8C C9U U10C C36U] is lower in “exon inclusion enrichment index” value: 1.44 for the first, 0.515 for the second.

First: AGUUCUUCUCGGGAGCUCCAGCACAGUGAAAUGGAGAGAAGGGCAGAGCAA [G5C C6U G8C C9U U10C C36G]
Second: AGUUCUUCUCGGGAGCUCCAGCACAGUGAAAUGGACAGAAGGGAAGAGCAA [G5C C6U G8C C9U U10C C44A]
The “exon inclusion enrichment index” value of the first is lower: 1.32 for the first, 3.29 for the second.

Going from AGUUCUUCUCGGGAGCUCCAGCACAGUGAAAUGGACAGAAGGGGAGAGCAA [G5C C6U G8C C9U U10C C44G] to AGUUCUUCUCGGGAGCUCCAGCACAGUGAAAUGGACAGAAGGGUAGAGCAA [G5C C6U G8C C9U U10C C44U], the “exon inclusion enrichment index” value falls from 2.79 to 0.527.

First: AGUUCUUCUCGGGAGCUCCAGCACAGUGAAAUGGAACGAAGGGCAGAGCAA [G5C C6U G8C C9U U10C C36A A37C]
Second: AGUUCUUCUCGGGAGCUCCAGCACAGUGAAAUGGAAUGAAGGGCAGAGCAA [G5C C6U G8C C9U U10C C36A A37U]
The “exon inclusion enrichment index” value of the first is higher: 2.33 for the first, 0.939 for the second.

In the case of AGUUCUUCUCGGGAGCUCCAGCACAGUGAAAUGGAAGGAAGGGCAGAGCAA [G5C C6U G8C C9U U10C C36A A37G], the “exon inclusion enrichment index” value is reported as 0.805.
